The source of these data is paper PMC8193172.

For this experiment, the target named is Hydrophobin-BMP2 fusion protein (UniProt P12643). As to the kind of experiment: SDS-PAGE and Western blot. Background: A western blot detects proteins with antibodies after separation by electrophoresis.

A word on the stoichiometry N: it is a count of units in the complex or per binding partner. In turn, “Hydrophobin-BMP2 fusion protein (from UniProt P12643 283-396)” had a stoichiometry N of 2.
